# B1: OAS1 (parent)
# chain: LQLGEGVEFDVLPAFDALGQLTGG
# Variants of: B1
# Experiment: protein stability index of a GFP-peptide fusion (GPS, HEK-293T) (PSI 1-6); higher = more stable
# Settings: c terminus: a fixed tail appended
# 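Note: lentivirally expressed fusions sorted by FACS into six bins by GFP to DsRed ratio, PSI derived from sequencing read proportions per bin multiplied by bin number.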
row,Variant,protein stability index
1,LQLGEGVEFDVLPAFDQLGQLTGG,1.61
2,LQLGEGVEFDVLPAFDWLGQLTGG,3.13
3,LQLGEGVEFDVLPAFDNLGQLTGG,2.28
4,LQLGEGVEFDVLPAFDTLGQLTGG,2.6
5,LQLGEGVEFDVLPAFDCLGQLTGG,2.01
6,LQLGEGVEFDVLPAFDMLGQLTGG,2.14
7,LQLGEGVEFDVLPAFDHLGQLTGG,1.76
8,LQLGEGVEFDVLPAFDGLGQLTGG,2.01
9,LQLGEGVEFDVLPAFDSLGQLTGG,1.84
10,LQLGEGVEFDVLPAFDRLGQLTGG,2.05
11,LQLGEGVEFDVLPAFDDLGQLTGG,2.14
12,LQLGEGVEFDVLPAFDPLGQLTGG,2.41
13,LQLGEGVEFDVLPAFDFLGQLTGG,3.94
14,LQLGEGVEFDVLPAFDVLGQLTGG,2.86
15,LQLGEGVEFDVLPAFDLLGQLTGG,1.9
16,LQLGEGVEFDVLPAFDILGQLTGG,1.53
17,LQLGEGVEFDVLPAFDYLGQLTGG,2.48
18,LQLGEGVEFDVLPAFDAQGQLTGG,2.36
19,LQLGEGVEFDVLPAFDAMGQLTGG,1.66
20,LQLGEGVEFDVLPAFDAGGQLTGG,3.58
21,LQLGEGVEFDVLPAFDANGQLTGG,2.17
22,LQLGEGVEFDVLPAFDADGQLTGG,3.47
23,LQLGEGVEFDVLPAFDAWGQLTGG,3.14
24,LQLGEGVEFDVLPAFDAVGQLTGG,2

row,Variant,protein stability index
1,LQLGEGVEFDVLPAFDAFGQLTGG,1.14
2,LQLGEGVEFDVLPAFDACGQLTGG,2.62
3,LQLGEGVEFDVLPAFDASGQLTGG,2.38
4,LQLGEGVEFDVLPAFDARGQLTGG,2.79
5,LQLGEGVEFDVLPAFDAEGQLTGG,3.1
6,LQLGEGVEFDVLPAFDAAGQLTGG,3.35
7,LQLGEGVEFDVLPAFDATGQLTGG,2.48
8,LQLGEGVEFDVLPAFDAIGQLTGG,1.26
9,LQLGEGVEFDVLPAYDALGQLTGG,1.47
10,LQLGEGVEFDVLPARDALGQLTGG,2.74
11,LQLGEGVEFDVLPASDALGQLTGG,2.73
12,LQLGEGVEFDVLPAEDALGQLTGG,3.57
13,LQLGEGVEFDVLPAMDALGQLTGG,1.96
14,LQLGEGVEFDVLPAPDALGQLTGG,3.45
15,LQLGEGVEFDVLPAIDALGQLTGG,2.27
16,LQLGEGVEFDVLPAGDALGQLTGG,3.56
17,LQLGEGVEFDVLPAVDALGQLTGG,1.65
18,LQLGEGVEFDVLPAWDALGQLTGG,1.22
19,LQLGEGVEFDVLPAHDALGQLTGG,3.1
20,LQLGEGVEFDVLPAKDALGQLTGG,4.1
21,LQLGEGVEFDVLPALDALGQLTGG,2.48
22,LQLGEGVEFDVLPACDALGQLTGG,1.86
23,LQLGEGVEFDVLPADDALGQLTGG,3.12
24,LQLGEGVEFDVLPATDALGQLTGG,3.48

row,Variant,protein stability index
1,LQLGEGVEFDVLPAADALGQLTGG,2.92
2,LQLGEGVEKDVLPAFDALGQLTGG,3.69
3,LQLGEGVEDDVLPAFDALGQLTGG,3.88
4,LQLGEGVEHDVLPAFDALGQLTGG,4.18
5,LQLGEGVERDVLPAFDALGQLTGG,3.67
6,LQLGEGVECDVLPAFDALGQLTGG,2.37
7,LQLGEGVEMDVLPAFDALGQLTGG,2.88
8,LQLGEGVEIDVLPAFDALGQLTGG,1.65
9,LQLGEGVEEDVLPAFDALGQLTGG,4.37
10,LQLGEGVEPDVLPAFDALGQLTGG,3.64
11,LQLGEGVESDVLPAFDALGQLTGG,4.03
12,LQLGEGVEQDVLPAFDALGQLTGG,3.84
13,LQLGEGVENDVLPAFDALGQLTGG,4.57
14,LQLGEGVEFDQLPAFDALGQLTGG,3.62
15,LQLGEGVEFDFLPAFDALGQLTGG,1.59
16,LQLGEGVEFDWLPAFDALGQLTGG,1.16
17,LQLGEGVEFDMLPAFDALGQLTGG,2.33
18,LQLGEGVEFDALPAFDALGQLTGG,1.91
19,LQLGEGVEFDELPAFDALGQLTGG,2.95
20,LQLGEGVEFDSLPAFDALGQLTGG,2.59
21,LQLGEGVEFDPLPAFDALGQLTGG,2.3
22,LQLGEGVEFDLLPAFDALGQLTGG,1.96
23,LQLGEGVEFDKLPAFDALGQLTGG,2.72
24,LQLGEGVEFDTLPAFDALGQLTGG,2.21

row,Variant,protein stability index
1,LQLGEGVEFDILPAFDALGQLTGG,1.49
2,LQLGEGVEFDNLPAFDALGQLTGG,3.33
3,LQLGEGVEFDCLPAFDALGQLTGG,2
4,LQLGEGVEFDRLPAFDALGQLTGG,2.54
5,LQLGEGVEFDHLPAFDALGQLTGG,2.83
6,LQLGEGVYFDVLPAFDALGQLTGG,2.67
7,LQLGEGVDFDVLPAFDALGQLTGG,2.54
8,LQLGEGVLFDVLPAFDALGQLTGG,1.5
9,LQLGEGVWFDVLPAFDALGQLTGG,1.98
10,LQLGEGVHFDVLPAFDALGQLTGG,2.07
11,LQLGEGVSFDVLPAFDALGQLTGG,1.99
12,LQLGEGVIFDVLPAFDALGQLTGG,2.37
13,LQLGEGVKFDVLPAFDALGQLTGG,1.83
14,LQLGEGVNFDVLPAFDALGQLTGG,2.4
15,LQLGEGVTFDVLPAFDALGQLTGG,1.42
16,LQLGEGVQFDVLPAFDALGQLTGG,1.67
17,LQLGEGVPFDVLPAFDALGQLTGG,2.09
18,LQLGEGVEFDVLPIFDALGQLTGG,1.48
19,LQLGEGVEFDVLPQFDALGQLTGG,2.46
20,LQLGEGVEFDVLPSFDALGQLTGG,1.55
21,LQLGEGVEFDVLPNFDALGQLTGG,1.86
22,LQLGEGVEFDVLPHFDALGQLTGG,1.58
23,LQLGEGVEFDVLPRFDALGQLTGG,1.29
24,LQLGEGVEFDVLPKFDALGQLTGG,1.61

row,Variant,protein stability index
1,LQLGEGVEFDVLPTFDALGQLTGG,2.34
2,LQLGEGVEFDVLPVFDALGQLTGG,1.19
3,LQLGEGVEFDVLPYFDALGQLTGG,1.53
4,LQLGEGVEFDVLPCFDALGQLTGG,1.37
5,LQLGEGVEFDVLPDFDALGQLTGG,1.67
6,LQLGEGVEFDVLPGFDALGQLTGG,1.88
7,LQLGEGVEFDVLPPFDALGQLTGG,2.02
8,LQLGEGPEFDVLPAFDALGQLTGG,1.67
9,LQLGEGWEFDVLPAFDALGQLTGG,2.81
10,LQLGEGREFDVLPAFDALGQLTGG,2.27
11,LQLGEGCEFDVLPAFDALGQLTGG,1.34
12,LQLGEGHEFDVLPAFDALGQLTGG,2.9
13,LQLGEGAEFDVLPAFDALGQLTGG,2.33
14,LQLGEGYEFDVLPAFDALGQLTGG,1.55
15,LQLGEGFEFDVLPAFDALGQLTGG,1.8
16,LQLGEGQEFDVLPAFDALGQLTGG,2.86
17,LQLGEGKEFDVLPAFDALGQLTGG,2.27
18,LQLGEGIEFDVLPAFDALGQLTGG,2.84
19,LQLGEGEEFDVLPAFDALGQLTGG,2.5
20,LQLGEGSEFDVLPAFDALGQLTGG,2.11
21,LQLGEGLEFDVLPAFDALGQLTGG,3.26
22,LQLGEGTEFDVLPAFDALGQLTGG,2.41
23,LQLGEGMEFDVLPAFDALGQLTGG,1.52
24,LQLGEGNEFDVLPAFDALGQLTGG,2.46

row,Variant,protein stability index
1,LQLGEGDEFDVLPAFDALGQLTGG,2.04
2,LQLGEGVEFNVLPAFDALGQLTGG,3
3,LQLGEGVEFFVLPAFDALGQLTGG,1.64
4,LQLGEGVEFPVLPAFDALGQLTGG,2.53
5,LQLGEGVEFGVLPAFDALGQLTGG,2.03
6,LQLGEGVEFHVLPAFDALGQLTGG,1.5
7,LQLGEGVEFTVLPAFDALGQLTGG,1.36
8,LQLGEGVEFQVLPAFDALGQLTGG,1.8
9,LQLGEGVEFKVLPAFDALGQLTGG,1.99
10,LQLGEGVEFCVLPAFDALGQLTGG,2.3
11,LQLGEGVEFVVLPAFDALGQLTGG,2.77
12,LQLGEGVEFSVLPAFDALGQLTGG,2
13,LQLGPGVEFDVLPAFDALGQLTGG,1.93
14,LQLGYGVEFDVLPAFDALGQLTGG,1.14
15,LQLGWGVEFDVLPAFDALGQLTGG,2.32
16,LQLGQGVEFDVLPAFDALGQLTGG,1.64
17,LQLGTGVEFDVLPAFDALGQLTGG,2.05
18,LQLGVGVEFDVLPAFDALGQLTGG,2.24
19,LQLGEGVEFDVLGAFDALGQLTGG,1.31
20,LQLGEGVEFDVLHAFDALGQLTGG,2.21
21,LQLGEGVEFDVLRAFDALGQLTGG,1.29
22,LQLGEGVEFDVLNAFDALGQLTGG,2.69
23,LQLGEGVEFDVLDAFDALGQLTGG,1.4
24,LQLGEGVEFDVLYAFDALGQLTGG,2.03

row,Variant,protein stability index
1,LQLGEGVEFDVLPAFSALGQLTGG,1.07
2,LQLGEGVEFDVLPAFCALGQLTGG,1.34
3,LQLGEGVEFDVLPAFKALGQLTGG,1.81
4,LQLGEGVEFDVLPAFIALGQLTGG,3.52
5,LQLGEGVEFDVLPAFRALGQLTGG,1.31
6,LQLGEGVEFDVLPAFAALGQLTGG,1.79
7,LQLGEGVEFDVLPAFHALGQLTGG,2.26
8,LQLGEGVEFDVLPAFQALGQLTGG,2.29
9,LQLGEGVEFDVLPAFTALGQLTGG,1.99
10,LQLGEGVEFDVLPAFPALGQLTGG,2.46
11,LQLGEAVEFDVLPAFDALGQLTGG,1.53
12,LQLGEMVEFDVLPAFDALGQLTGG,2.01
13,LQLGEQVEFDVLPAFDALGQLTGG,2.51
14,LQLGERVEFDVLPAFDALGQLTGG,2.33
15,LQLGEDVEFDVLPAFDALGQLTGG,1.88
16,LQLGEEVEFDVLPAFDALGQLTGG,2.38
17,LQLGEHVEFDVLPAFDALGQLTGG,2.8
18,LQLGEKVEFDVLPAFDALGQLTGG,3
19,LQLGECVEFDVLPAFDALGQLTGG,1.83
20,LQLGEFVEFDVLPAFDALGQLTGG,1.63
21,LQLGETVEFDVLPAFDALGQLTGG,1.55
22,LQLGEYVEFDVLPAFDALGQLTGG,1.3
23,LQLGEIVEFDVLPAFDALGQLTGG,1.28
24,LQLGESVEFDVLPAFDALGQLTGG,2.39

row,Variant,protein stability index
1,LQLGENVEFDVLPAFDALGQLTGG,2.25
2,LQLGEPVEFDVLPAFDALGQLTGG,2.94
3,LQLGEWVEFDVLPAFDALGQLTGG,1.74
4,LQLGEGVEFDVSPAFDALGQLTGG,3.82
5,LQLGEGVEFDVRPAFDALGQLTGG,2.69
6,LQLGEGVEFDVVPAFDALGQLTGG,2.24
7,LQLGEGVEFDVYPAFDALGQLTGG,1.72
8,LQLGEGVEFDVIPAFDALGQLTGG,1.64
9,LQLGEGVEFDVWPAFDALGQLTGG,1.13
10,LQLGEGVEFDVDPAFDALGQLTGG,4.05
11,LQLGEGVEFDVFPAFDALGQLTGG,1.54
12,LQLGEGVEFDVEPAFDALGQLTGG,3.98
13,LQLGEGVEFDVHPAFDALGQLTGG,3.08
14,LQLGEGVEFDVTPAFDALGQLTGG,2.4
15,LQLGEGVEFDVKPAFDALGQLTGG,2.94
16,LQLGEGVEFDVQPAFDALGQLTGG,2.59
17,LQLGEGVEFDVMPAFDALGQLTGG,3.1
18,LQLGEGVEFDVNPAFDALGQLTGG,2.99
19,LQLGEGVEFDVGPAFDALGQLTGG,2.69
20,LQLGEGVEFDVPPAFDALGQLTGG,2.48

# Reference: the supplement of paper PMC10567573
